Measurements: the supplement of paper PMC6757056
± gives the standard deviation of the averaged measurements.

B1: library; a variant is named by its letters at N, in order (parent)
chain: GCUGUCACCGGUGCUUGGUACGUUAUAUUCAGCCGGUCUGAUGAGUCUNNNNNNAGACGAAACAGC

Tests used:
(6R,S)-folinic acid [1] = variants of: B1; assay: FACS-Seq fitted mean relative fluorescence mCherry/BFP without ligand (log10 relative fluorescence); HEK293T overexpressing SLC46A1; higher = higher reporter protein expression; details: without (6R,S)-folinic acid; ligand present: no
Summary of the method: (§1)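 Genomic DNA from 6 mCherry/BFP sort bins was PCR-amplified, barcoded and sequenced on MiSeq. The sorted cells were enriched HEK293T libraries, lentivirally transduced with a ribozyme-switch mCherry reporter and an EF1α-BFP marker, incubated with or without ligand for 48 h. Fluorescence derives from a normal fit to the bin counts. The fit was on log10(mCherry/BFP), and means were scaled to five spiked-in control ribozymes.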

(6R,S)-folinic acid [2] = variants of: B1; assay: normalized RNA/DNA level without ligand (relative to sTRSVctl = 100) (log10 (% of sTRSVctl)); HEK293T overexpressing SLC46A1; higher = less ribozyme self-cleavage, higher mRNA level; details: without (6R,S)-folinic acid; ligand present: no
Summary of the method: (§2)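 Library plasmids carrying ribozyme switches linked to mCherry, or to eGFP in some ligand experiments, were transfected into HEK293T at 4 µg per 6-well well, with any ligand added 1 h earlier. Seventy-two hours on, total RNA was extracted with EDTA and reverse-transcribed, amplified, barcoded and sequenced. RNA level was RNA over DNA reads normalized to a spiked-in non-cleaving sequence or to the top sequences, then scaled and log-transformed. The top set was 25 sequences, the transform was ×100 and log10, and sequences needed ≥100 DNA reads.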

(6R,S)-folinic acid [3] = variants of: B1; assay: FACS-Seq fitted mean relative fluorescence mCherry/BFP with ligand (log10 relative fluorescence); HEK293T overexpressing SLC46A1; ligand concentration (+) FACS-Seq: 6 mM; higher = higher reporter protein expression; details: with (6R,S)-folinic acid; ligand present: yes
Summary of the method: as §1

(6R,S)-folinic acid [4] = variants of: B1; assay: normalized RNA/DNA level with ligand (relative to sTRSVctl = 100) (log10 (% of sTRSVctl)); HEK293T overexpressing SLC46A1; ligand concentration (+) RNA-Seq: 6 mM; higher = less ribozyme self-cleavage, higher mRNA level; details: with (6R,S)-folinic acid; ligand present: yes
Summary of the method: as §2

Variant | FACS-Seq fitted mean (log10) ((6R,S)-folinic acid [1]) | normalized RNA/DNA level without ligand (log10) ((6R,S)-folinic acid [2]) | FACS-Seq fitted mean (log10) ((6R,S)-folinic acid [3]) | normalized RNA/DNA level with ligand (log10) ((6R,S)-folinic acid [4])
GUAGAA | 0.384 ± 0.0046 | 1.954 ± 0.0058 | 0.522 ± 0.23 | 1.995 ± 0.0074
GUAGAU | 0.516 ± 0.029 | 1.9541 ± 0.0012 | 0.494 ± 0.37 | 1.98 ± 0.047
GUAGAG | 0.201 ± 0.057 | 1.759 ± 0.015 | 0.87 ± 0.12 | 1.98 ± 0.035
GUAAGG | 0.183 ± 0.078 | 1.946 ± 0.015 | 0.381 ± 0.047 | 2.025 ± 0.015
GUAAGC | 0.239 ± 0.059 | 1.896 ± 0.0061 | 0.33 ± 0.072 | 2.01 ± 0.013
GGUGCA | 0.256 ± 0.027 | 2.037 ± 0.017 | 0.204 ± 0.17 | 2.04 ± 0.032
GGUGCU | -0.205 ± 0.13 | 2.005 ± 0.017 | 0.149 ± 0.25 | 2.01 ± 0.046
GUACAG | 0.519 ± 0.15 | 1.938 ± 0.018 | 0.81 ± 0.0085 | 2 ± 0.024
GUACAC | 0.175 ± 0.17 | 1.984 ± 0.01 | 0.311 ± 0.16 | 2.029 ± 0.019
AUAACU | -0.545 ± 0.34 | 2.009 ± 0.007 | -0.619 ± 0.76 | 2.02 ± 0.038
AUAACC | -0.122 ± 0.045 | 2.011 ± 0.015 | -0.194 ± 0.26 | 2 ± 0.034
AUAACA | 0.394 ± 0.16 | 2 ± 0.017 | 0.263 ± 0.35 | 1.98 ± 0.033
AUACCA | -0.158 ± 0.032 | 2.036 ± 0.01 | -0.268 ± 0.23 | 2.01 ± 0.043
CGUCUA | -0.111 ± 0.073 | 2.0035 ± 0.0014 | 0.325 ± 0.29 | 2.033 ± 0.0082
CGUCUC | 0.692 ± 0.063 | 2.06 ± 0.013 | 0.48 ± 0.48 | 1.996 ± 0.015
UUAUGA | 0.0124 ± 0.043 | 1.9284 ± 0.0007 | -0.0229 ± 0.25 | 2.01 ± 0.027
UUAUCU | 0.453 ± 0.099 | 2.0125 ± 0.0014 | 0.133 ± 0.1 | 2.03 ± 0.0072
GGUUGA | 0.168 ± 0.043 | 2.083 ± 0.0081 | -0.309 ± 0.06 | 2.07 ± 0.031
GGUUGC | 0.472 ± 0.12 | 1.932 ± 0.0076 | 0.388 ± 0.059 | 1.9808 ± 0.0018
UGUUUG | 0.222 ± 0.04 | 1.794 ± 0.0043 | 0.62 ± 0.05 | 2.01 ± 0.025
UGUUUU | 0.296 ± 0.18 | 1.985 ± 0.0066 | 0.546 ± 0.13 | 2.03 ± 0.023
AUAGCC | 0.385 ± 0.019 | 2.036 ± 0.0053 | 0.591 ± 0.43 | 2.03 ± 0.051
AUAGCG | 0.172 ± 0.0027 | 1.664 ± 0.015 | 0.461 ± 0.046 | 1.96 ± 0.045
AUAGCA | 0.356 ± 0.058 | 1.9776 ± 0.00078 | 0.516 ± 0.016 | 2.03 ± 0.028

Variant | FACS-Seq fitted mean (log10) ((6R,S)-folinic acid [1]) | normalized RNA/DNA level without ligand (log10) ((6R,S)-folinic acid [2]) | FACS-Seq fitted mean (log10) ((6R,S)-folinic acid [3]) | normalized RNA/DNA level with ligand (log10) ((6R,S)-folinic acid [4])
AGUGAU | 0.213 ± 0.04 | 1.972 ± 0.016 | 0.178 ± 0.14 | 1.996 ± 0.0024
AUACGG | 0.263 ± 0.033 | 1.919 ± 0.0086 | 0.367 ± 0.16 | 1.98 ± 0.02
GUAGUG | 0.359 ± 0.012 | 1.856 ± 0.0051 | 0.637 ± 0.19 | 1.99 ± 0.054
UUAUAG | 0.192 ± 0.026 | 1.8081 ± 0.0015 | 0.396 ± 0.16 | 1.99 ± 0.034
UUAUAC | 0.677 ± 0.11 | 1.994 ± 0.012 | 0.593 ± 0.097 | 1.99 ± 0.036
UGUGUA | 0.429 ± 0.1 | 1.895 ± 0.0065 | 0.399 ± 0.015 | 2.01 ± 0.021
UGUGUG | 0.164 ± 0.26 | 1.591 ± 0.003 | 0.393 ± 0.24 | 1.94 ± 0.062
UGUUGG | -0.0684 ± 0.078 | 1.53 ± 0.048 | 0.426 ± 0.024 | 1.88 ± 0.042
UGUUGA | 0.32 ± 0.026 | 1.837 ± 0.015 | 0.463 ± 0.13 | 2.01 ± 0.035
UUACGU | 0.339 ± 0.078 | 1.97 ± 0.0066 | 0.15 ± 0.074 | 2.01 ± 0.044
UGUGCU | 0.259 ± 0.17 | 2.024 ± 0.011 | 0.414 ± 0.076 | 2.07 ± 0.03
UGUGCG | 0.0533 ± 0.02 | 1.657 ± 0.011 | 0.442 ± 0.14 | 1.96 ± 0.05
CUAGGU | 0.652 ± 0.16 | 2.024 ± 0.0033 | 0.694 ± 0.027 | 2.05 ± 0.028
CUAGGC | 0.0076 ± 0.12 | 2.005 ± 0.0013 | 0.186 ± 0.24 | 2 ± 0.028
AUAGGU | 0.477 ± 0.19 | 1.87 ± 0.023 | 0.695 ± 0.3 | 2.01 ± 0.047
AUAGGC | 0.336 ± 0.054 | 2.013 ± 0.012 | 0.59 ± 0.1 | 2.047 ± 0.016
AUAGGG | -0.255 ± 0.066 | 1.599 ± 0.0044 | 0.286 ± 0.019 | 1.92 ± 0.025
GUAUAG | 0.256 ± 0.031 | 1.94 ± 0.0061 | 0.546 ± 0.096 | 2.01 ± 0.048
GUAAAC | 0.139 ± 0.033 | 1.965 ± 0.0075 | 0.507 ± 0.47 | 2.04 ± 0.0061
GUAAAU | 0.332 ± 0.13 | 1.971 ± 0.0055 | 0.464 ± 0.033 | 2.003 ± 0.0095
GUAAAA | 0.0987 ± 0.013 | 1.998 ± 0.0036 | -0.0576 ± 0.026 | 1.96 ± 0.046
AGUCAA | 0.156 ± 0.066 | 1.962 ± 0.0074 | 0.225 ± 0.046 | 1.96 ± 0.053
UGUCUG | 0.171 ± 0.096 | 1.73 ± 0.02 | 0.451 ± 0.14 | 1.96 ± 0.047
AGUCGA | 0.3437 ± 0.0018 | 1.974 ± 0.012 | 0.506 ± 0.09 | 2.021 ± 0.0067

Variant | FACS-Seq fitted mean (log10) ((6R,S)-folinic acid [1]) | normalized RNA/DNA level without ligand (log10) ((6R,S)-folinic acid [2]) | FACS-Seq fitted mean (log10) ((6R,S)-folinic acid [3]) | normalized RNA/DNA level with ligand (log10) ((6R,S)-folinic acid [4])
AGUCGU | 0.209 ± 0.14 | 1.979 ± 0.013 | -0.0314 ± 0.084 | 2.03 ± 0.029
UGUGAG | 0.269 ± 0.082 | 1.6 ± 0.0064 | 0.649 ± 0.03 | 1.906 ± 0.0071
UGUGAA | 0.186 ± 0.034 | 1.899 ± 0.015 | 0.243 ± 0.25 | 1.984 ± 0.012
GUAUGC | 0.271 ± 0.067 | 1.891 ± 0.015 | 0.404 ± 0.15 | 2 ± 0.03
GGUCCA | 0.532 ± 0.025 | 2.029 ± 0.0028 | 0.724 ± 0.15 | 2.01 ± 0.07
AGUUGU | 0.3648 ± 0.0018 | 1.962 ± 0.012 | 0.521 ± 0.35 | 2.04 ± 0.028
AGUUGA | 0.17 ± 0.13 | 1.964 ± 0.015 | 0.105 ± 0.028 | 2.018 ± 0.016
AGUUGC | 0.455 ± 0.088 | 2.001 ± 0.0034 | 0.705 ± 0.23 | 2.03 ± 0.016
GUACUU | 0.484 ± 0.059 | 2.034 ± 0.015 | 0.386 ± 0.2 | 2.04 ± 0.06
GUACUC | 0.541 ± 0.13 | 2.051 ± 0.016 | 0.366 ± 0.17 | 2.041 ± 0.013
GUACUA | 0.314 ± 0.17 | 2.046 ± 0.0037 | 0.428 ± 0.14 | 2.04 ± 0.026
GGUUUG | 0.0685 ± 0.084 | 2.024 ± 0.0089 | -0.1121 ± 0.00036 | 2.06 ± 0.025
CUAAAA | 0.151 ± 0.029 | 1.98 ± 0.021 | 0.19 ± 0.12 | 1.98 ± 0.048
CUAAAG | -0.0676 ± 0.063 | 1.913 ± 0.0067 | -0.0285 ± 0.2 | 2 ± 0.035
GUACGG | 0.245 ± 0.024 | 1.953 ± 0.0076 | 0.584 ± 0.19 | 2.03 ± 0.032
GUACGA | 0.269 ± 0.031 | 2.0027 ± 0.0013 | 0.139 ± 0.31 | 2.04 ± 0.051
CGUGAC | 0.241 ± 0.037 | 2.015 ± 0.01 | 0.201 ± 0.09 | 1.99 ± 0.052
CGUGAA | 0.328 ± 0.19 | 1.9509 ± 0.0012 | 0.192 ± 0.33 | 2.01 ± 0.028
AUAAAG | 0.418 ± 0.03 | 1.901 ± 0.0089 | 0.417 ± 0.016 | 2 ± 0.036
AUAAAA | 0.343 ± 0.0039 | 1.9901 ± 0.0019 | 0.263 ± 0.23 | 1.994 ± 0.016
AUAAAU | 0.45 ± 0.08 | 1.951 ± 0.017 | 0.359 ± 0.082 | 2.028 ± 0.007
AUAAAC | -0.0226 ± 0.13 | 1.998 ± 0.0043 | -0.127 ± 0.3 | 1.99 ± 0.026
GUAUCA | 0.376 ± 0.03 | 2.045 ± 0.01 | 0.586 ± 0.01 | 2.04 ± 0.03
AGUAUG | 0.41 ± 0.013 | 1.89 ± 0.022 | 0.586 ± 0.1 | 1.994 ± 0.019
